# Numbering of substitutions follows the chain as printed.
# B1: dual inhibitor molecule C (VEGF Trap-AntiIL-6) (other)
# heavy: SDTGRPFVEMYSEIPEIIHMTEGRELVIPCRVTSPNITVTLKKFPLDTLIPDGKRIIWDSRKGFIISNATYKEIGLLTCEATVNGHLYKTNYLTHRQTNTIIDVVLSPSHGIELSVGEKLVLNCTARTELNVGIDFNWEYPSSKHQHKKLVNRDLKTQSGSEMKKFLSTLTIDGVTRSDQGLYTCAASSGLMTKKNSTFVRVHEKGGGGSGGGGSEVQLVESGGGLVQPGGSLRLSCAASGFTFSPFAISWVRQAPGKGLEWVAKISPGGSWTYYSDTVTDRFTFSLDTSKSTAYLQMNSLRAEDTAVYYCARQLWGYYALDVWGQGTLVTVSSASTKGPSVFPLAPSSKSTSGGTAALGCLVKDYFPEPVTVSWNSGALTSGVHTFPAVLQSSGLYSLSSVVTVPSSSLGTQTYICNVNHKPSNTKVDKKVEPKSCDKTHTCPPCPAPEAAGAPSVFLFPPKPKDTLMISRTPEVTCVVVDVSHEDPEVKFNWYVDGVEVHNAKTKPREEQYNSTYRVVSVLTVLHQDWLNGKEYKCKVSNKALPAPIEKTISKAKGQPREPQVYTLPPSREEMTKNQVSLTCLVKGFYPSDIAVEWESNGQPENNYKTTPPVLDSDGSFFLYSKLTVDKSRWQQGNVFSCSVMHEALHNHYTQKSLSCSPGK
# light: DIQLTQSPSSLSASVGDRVTITCSASISVSYLYWYQQKPGKAPKLLIYDDSNLASGVPSRFSGSGSGTDFTLTISSLQPEDFATYYCQQWSGYPYTFGQGTKVEIKRTVAAPSVFIFPPSDEQLKSGTASVVCLLNNFYPREAKVQWKVDNALQSGNSQESVTEQDSKDSTYSLSSTLTLSKADYEKHKVYACEVTHQGLSSPVTKSFNRGEC
# notes: Trap-antibody fusion, VEGF trap at the N-terminus of the anti-IL-6 heavy chain (VH variant I); light chain variant V
# B2: dual inhibitor molecule L (AntiIL-6-VEGF Trap) (other)
# heavy: EVQLVESGGGLVQPGGSLRLSCAASGFTFSPFAWSWVRQAPGKGLEWVAKISPGGSWTYYSDTVTDRFTFSLDTSKSTAYLQMNSLRAEDTAVYYCARQLWGYYALDVWGQGTLVTVSSASTKGPSVFPLAPSSKSTSGGTAALGCLVKDYFPEPVTVSWNSGALTSGVHTFPAVLQSSGLYSLSSVVTVPSSSLGTQTYICNVNHKPSNTKVDKKVEPKSCGGGGSGGGGSSDTGRPFVEMYSEIPEIIHMTEGRELVIPCRVTSPNITVTLKKFPLDTLIPDGKRIIWDSRKGFIISNATYKEIGLLTCEATVNGHLYKTNYLTHRQTNTIIDVVLSPSHGIELSVGEKLVLNCTARTELNVGIDFNWEYPSSKHQHKKLVNRDLKTQSGSEMKKFLSTLTIDGVTRSDQGLYTCAASSGLMTKKNSTFVRVHEKDKTHTCPPCPAPEAAGAPSVFLFPPKPKDTLMISRTPEVTCVVVDVSHEDPEVKFNWYVDGVEVHNAKTKPREEQYNSTYRVVSVLTVLHQDWLNGKEYKCKVSNKALPAPIEKTISKAKGQPREPQVYTLPPSREEMTKNQVSLTCLVKGFYPSDIAVEWESNGQPENNYKTTPPVLDSDGSFFLYSKLTVDKSRWQQGNVFSCSVMHEALHNHYTQKSLSCSPGKPGK
# light: B1 light
# notes: Trap-antibody fusion, VEGF trap between the Fab region (VH variant II) and the Fc; light chain variant V
# B3: dual inhibitor molecule G (AntiIL-6-VEGF Trap) (other)
# heavy: EVQLVESGGGLVQPGGSLRLSCAASGFTFSPFAISWVRQAPGKGLEWVAKISPGGSWTYYSDTVTDRFTFSLDTSKSTAYLQMNSLRAEDTAVYYCARQLWGYYALDVWGQGTLVTVSSASTKGPSVFPLAPSSKSTSGGTAALGCLVKDYFPEPVTVSWNSGALTSGVHTFPAVLQSSGLYSLSSVVTVPSSSLGTQTYICNVNHKPSNTKVDKKVEPKSCGGGGSGGGGSSDTGRPFVEMYSEIPEIIHMTEGRELVIPCRVTSPNITVTLKKFPLDTLIPDGKRIIWDSRKGFIISNATYKEIGLLTCEATVNGHLYKTNYLTHRQTNTIIDVVLSPSHGIELSVGEKLVLNCTARTELNVGIDFNWEYPSSKHQHKKLVNRDLKTQSGSEMKKFLSTLTIDGVTRSDQGLYTCAASSGLMTKKNSTFVRVHEKDKTHTCPPCPAPEAAGAPSVFLFPPKPKDTLMISRTPEVTCVVVDVSHEDPEVKFNWYVDGVEVHNAKTKPREEQYNSTYRVVSVLTVLHQDWLNGKEYKCKVSNKALPAPIEKTISKAKGQPREPQVYTLPPSREEMTKNQVSLTCLVKGFYPSDIAVEWESNGQPENNYKTTPPVLDSDGSFFLYSKLTVDKSRWQQGNVFSCSVMHEALHNHYTQKSLSCSPGK
# light: B1 light with N52S
# notes: Trap-antibody fusion, VEGF trap between the Fab region (VH variant I) and the Fc; light chain variant III
# B4: dual inhibitor molecule J (AntiIL-6-VEGF Trap) (other)
# heavy: B3 heavy with I34W
# light: B1 light with N52S
# notes: Trap-antibody fusion, VEGF trap between the Fab region (VH variant II) and the Fc; light chain variant III
# B5: dual inhibitor molecule I (AntiIL-6-VEGF Trap) (other)
# heavy: B3 heavy
# light: B1 light
# notes: Trap-antibody fusion, VEGF trap between the Fab region (VH variant I) and the Fc; light chain variant V
# B6: dual inhibitor molecule F (VEGF Trap-AntiIL-6) (other)
# heavy: B1 heavy with I249W
# light: B1 light
# notes: Trap-antibody fusion, VEGF trap at the N-terminus of the anti-IL-6 heavy chain (VH variant II); light chain variant V
# B7: dual inhibitor molecule K (AntiIL-6-VEGF Trap) (other)
# heavy: B3 heavy with I34W
# light: B1 light with D50A, N52S
# notes: Trap-antibody fusion, VEGF trap between the Fab region (VH variant II) and the Fc; light chain variant IV
# B8: dual inhibitor molecule H (AntiIL-6-VEGF Trap) (other)
# heavy: B3 heavy
# light: B1 light with D50A, N52S
# notes: Trap-antibody fusion, VEGF trap between the Fab region (VH variant I) and the Fc; light chain variant IV
# B9: dual inhibitor molecule E (VEGF Trap-AntiIL-6) (other)
# heavy: B1 heavy with I249W
# light: B1 light with D50A, N52S
# notes: Trap-antibody fusion, VEGF trap at the N-terminus of the anti-IL-6 heavy chain (VH variant II); light chain variant IV
# B10: dual inhibitor molecule D (VEGF Trap-AntiIL-6) (other)
# heavy: B1 heavy with I249W
# light: B1 light with N52S
# notes: Trap-antibody fusion, VEGF trap at the N-terminus of the anti-IL-6 heavy chain (VH variant II); light chain variant III
# Biological target: T1, recombinant human IL-6 (human, UniProt P05231 30-212)
# T1 construct: Bought protein
# Assay: SPR Biacore, purified dual inhibitor on Protein A chip, IL-6 analyte, 37 C
# T1 sequence (P05231 30-212 limits assumed): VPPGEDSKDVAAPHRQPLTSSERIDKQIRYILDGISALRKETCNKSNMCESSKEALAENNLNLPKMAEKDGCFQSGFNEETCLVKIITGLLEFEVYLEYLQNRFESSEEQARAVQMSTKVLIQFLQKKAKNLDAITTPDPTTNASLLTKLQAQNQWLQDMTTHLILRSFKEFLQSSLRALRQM
Kd [nM],koff [s⁻¹],kon [M⁻¹ s⁻¹],Binder
0.477,0.000481,1.01e+06,B1
0.436,0.00065,1.49e+06,B2
0.451,0.000567,1.26e+06,B3
0.468,0.000664,1.42e+06,B4
0.435,0.000499,1.15e+06,B5
0.34,0.000446,1.31e+06,B6
0.452,0.000579,1.28e+06,B7
0.396,0.000529,1.34e+06,B8
0.424,0.000459,1.08e+06,B9
0.365,0.000447,1.23e+06,B10

# Biological target: T1, recombinant human IL-6
# Assay: SPR Biacore, supernatant dual inhibitor on Protein A chip, IL-6 analyte, 25 C
Kd [nM],koff [s⁻¹],kon [M⁻¹ s⁻¹],Binder
0.394,0.00015,379000,B1
0.239,0.000169,705000,B2
0.589,0.000149,252000,B3
0.28,0.000149,534000,B4
0.679,0.000147,217000,B5
0.225,0.000137,611000,B6
0.282,0.000178,629000,B7
0.356,0.000162,454000,B8
0.299,0.000151,504000,B9
0.253,0.000109,433000,B10

# From patent publication US20240209076A1 (KODIAK SCIENCES, published 2024)
